B1: … (HPV16 E1, position 72, 9 amino acids) (peptide)
peptide: TAQEAKQHR
modifications: not checked
B2: HPV16 E1 112 … (peptide)
peptide: AICIEKQSR
modifications: not checked
B3: … (HPV16 E7, position 68, 10 amino acids) (peptide)
peptide: CVQSTHVDIR
modifications: not checked
B4: … (HPV16 E7, position 58, 9 amino acids) (peptide)
peptide: CCKCDSTLR
modifications: not checked
B5: … (HPV16 E6, position 116, 9 amino acids) (peptide)
peptide: PLCPEEKQR
modifications: not checked
B6: … (HPV16 E6, position 39, 9 amino acids) (peptide)
peptide: YCKQQLLRR
modifications: not checked
B7: … (HPV16 E1, position 109, 9 amino acids) (peptide)
peptide: RLKAICIEK
modifications: not checked
B8: HPV16 E1 11 … (peptide)
peptide: EGTGCNGWFY
modifications: not checked
B9: HPV18 E1 position 341 peptide … (peptide)
peptide: GDTPEWIQR
modifications: not checked
B10: HPV18 E6 131 … (peptide)
peptide: AGHYRGQCH
modifications: not checked
B11: … (HPV16 E1, position 196, 9 amino acids) (peptide)
peptide: NVLKTSNAK
modifications: not checked
B12: … (HPV16 E6, position 139, 10 amino acids) (peptide)
peptide: WTGRCMSCCR
modifications: not checked
B13: HPV16 E1 202 … (peptide)
peptide: NAKAAMLAK
modifications: not checked
B14: … (HPV16 E6, position 145, 9 amino acids) (peptide)
peptide: SCCRSSRTR
modifications: not checked
B15: HPV16 E1 567 … (peptide)
peptide: NINAGTDSR
modifications: not checked
B16: … (HPV16 E6, position 140, 9 amino acids) (peptide)
peptide: TGRCMSCCR
modifications: not checked
B17: … (HPV16 E1, position 484, 9 amino acids) (peptide)
peptide: SLFGMSLMK
modifications: not checked
B18: … (HPV16 E1, position 497, 9 amino acids) (peptide)
peptide: SVICFVNSK
modifications: not checked
B19: … (HPV16 E7, position 14, 10 amino acids) (peptide)
peptide: DLQPETTDLY
modifications: not checked
B20: … (HPV16 E7, position 88, 10 amino acids) (peptide)
peptide: GIVCPICSQK
modifications: not checked
B21: … (HPV16 E7, position 89, 9 amino acids) (peptide)
peptide: IVCPICSQK
modifications: not checked
B22: HPV18 E6 peptide … (position 117, 9 amino acids) (peptide)
peptide: KLRHLNEKR
modifications: not checked
B23: HPV18 E6 peptide … (position 111, 9 amino acids) (peptide)
peptide: PLNPAEKLR
modifications: not checked
B24: HPV18 E6 peptide … (position 59, 9 amino acids) (peptide)
peptide: SIPHAACHK
modifications: not checked

These binders were tested against HLA-A*1101 (human) (assay: competition with 125I-labelled standard peptide for purified HLA-A*1101, gel filtration). Conditions: not given.
With B1 the binding affinity ratio (IC50 of the standard peptide / IC50 of the test peptide) was 0.0025.
Work on B2 yielded a relative binding ratio (IC50 of standard peptide / IC50 of test peptide) of 0.0057.
B3 showed a relative binding ratio (IC50 of standard peptide / IC50 of test peptide) of 0.0001.
B4 showed a relative binding ratio (IC50 of standard peptide / IC50 of test peptide) of 0.0001.
With B5 the relative binding ratio (IC50 of standard peptide / IC50 of test peptide) was 0.0005.
With B6 the relative binding ratio (IC50 of standard peptide / IC50 of test peptide) was 0.0001.
B7 showed a binding affinity ratio (IC50 of the standard peptide / IC50 of the test peptide) of 0.051.
Work on B8 yielded a relative binding ratio (IC50 of standard peptide / IC50 of test peptide) of 0.0002.
B9 was tested, and the binding affinity ratio (IC50 of standard peptide / IC50 of test peptide) was 0.0002.
B10 showed a binding affinity ratio (IC50 of standard peptide / IC50 of test peptide) of 0.0002.
In the case of B11, the binding affinity ratio (IC50 of the standard peptide / IC50 of the test peptide) is reported as 0.0015.
In the case of B12, the relative binding ratio (IC50 of standard peptide / IC50 of test peptide) is reported as 0.0008.
In the case of B13, the binding affinity ratio (IC50 of standard peptide / IC50 of test peptide) (ratio to standard peptide) is reported as 0.0031.
Binder B14 has a relative binding ratio (IC50 of standard peptide / IC50 of test peptide) of 0.0001.
B15 gave a binding affinity ratio (IC50 of standard peptide / IC50 of test peptide) (ratio to standard peptide) of 0.0002.
Work on B16 yielded a relative binding ratio (IC50 of standard peptide / IC50 of test peptide) of 0.0001.
With B17 the binding affinity ratio (IC50 of the standard peptide / IC50 of the test peptide) was 7.1.
With B18 the binding affinity ratio (IC50 of the standard peptide / IC50 of the test peptide) was 0.0002.

Same assay, conditions: remark: other sources report otherwise
B19 showed a relative binding ratio (IC50 of standard peptide / IC50 of test peptide) of 0.0002.
B20 gave a relative binding ratio (IC50 of standard peptide / IC50 of test peptide) of 0.067.
Binder B21 has a relative binding ratio (IC50 of standard peptide / IC50 of test peptide) of 0.0065.

The binders below were run against HLA-A*0301 (human) (assay: competition with 125I-labelled standard peptide for purified HLA-A*0301, gel filtration). Conditions: not given.
B22 was tested, and the relative binding ratio (IC50 of standard peptide / IC50 of test peptide) (ratio to standard peptide) was 0.025.
Binder B23 has a relative binding ratio (IC50 of standard peptide / IC50 of test peptide) of 0.0002.
Work on B24 yielded a relative binding ratio (IC50 of standard peptide / IC50 of test peptide) of 0.017.

These binders were tested against HLA-A*1101 (human) (assay: competition with 125I-labelled standard peptide for purified HLA, gel filtration). Conditions: not given.
B22 showed a relative binding ratio (IC50 of standard peptide / IC50 of test peptide) of 0.0005.
With B23 the relative binding ratio (IC50 of standard peptide / IC50 of test peptide) was 0.0005.
B24 gave a relative binding ratio (IC50 of standard peptide / IC50 of test peptide) of 0.12.

Each binder was assayed against HLA-A*0301 (human) in the same assay as above. Conditions: not given.
Work on B22 yielded a relative binding ratio (IC50 of standard peptide / IC50 of test peptide) of 0.025.
With B23 the relative binding ratio (IC50 of standard peptide / IC50 of test peptide) was 0.0002.
In the case of B24, the relative binding ratio (IC50 of standard peptide / IC50 of test peptide) is reported as 0.017.
